The data set deals with the molecule itself. Put plainly: high-speed atomic force microscopy.

B1: PDI I289A (enzyme)
chain: not shown
B1: the “stoichiometry N” value is 2.

(Values after article doi:10.1101/2021.01.04.425348 (bioRxiv, 2021).)
